One molecule from US20220332829A1 (NANJING SANHOME PHARMACEUTICAL, published 2022) can be followed below.

The target of assay [1] is T1, human 4Ig-B7-H3-His protein (human, UniProt Q5ZPR3 29-466).
T1 construct: also called human B7-H3 protein
T1 sequence: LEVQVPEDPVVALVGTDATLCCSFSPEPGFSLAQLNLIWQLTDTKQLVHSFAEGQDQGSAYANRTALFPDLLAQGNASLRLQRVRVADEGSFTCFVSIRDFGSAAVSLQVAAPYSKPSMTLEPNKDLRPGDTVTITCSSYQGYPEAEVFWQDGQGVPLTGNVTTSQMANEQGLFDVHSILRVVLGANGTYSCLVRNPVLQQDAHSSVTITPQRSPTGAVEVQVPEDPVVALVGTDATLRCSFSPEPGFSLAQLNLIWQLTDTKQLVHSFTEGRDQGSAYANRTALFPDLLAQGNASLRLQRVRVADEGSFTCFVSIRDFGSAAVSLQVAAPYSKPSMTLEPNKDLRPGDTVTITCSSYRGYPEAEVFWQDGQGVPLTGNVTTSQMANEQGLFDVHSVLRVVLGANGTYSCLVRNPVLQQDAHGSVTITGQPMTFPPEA
Description: Biacore X100 SPR, 4Ig-B7-H3-His coupled to CM5 chip, antibody injected. An excerpt: The humanized anti-B7-H3 antibodies prepared in Example 4 were subjected to affinity assay by Biacore. The antigen 4Ig-B7-H3-His was first coupled to the surface of a CM5 chip (GE, Cat. No. BR100012), and the active groups of the uncoupled protein were blocked with ethanolamine. After the baseline was stable, the hu39-01, hu65-13, and hBRCA84D antibodies were respectively diluted in equal proportions. The diluted antibodies of each concentration were placed on the sample injection tray of the instrument in sequence, and the program was set to inject samples respectively.
For orientation: Surface plasmon resonance follows binding to a sensor surface in real time, without labels.

Assay [2] addresses T1, human 4Ig-B7-H3-His protein. Kind of assay: ELISA, plate coated with human 4Ig-B7-H3-His, detection with anti-human IgG HRP, OD450. The protocol: The binding activity of antibodies was analyzed by ELISA. 96-well ELISA plates were coated with human 4Ig-B7-H3-His protein or 2Ig-B7-H3-His protein (1 μg/well, prepared in Examples 1 and 2) and incubated overnight at 4° C. The plates were washed 3 times with 1×PBST and then blocked with 5% skim milk at 37° C. for 2 h. After washing 3 times with 1×PBST, the anti-B7-H3 antibody of the present disclosure was used as the primary antibody and added to the ELISA plates in 5-fold gradient dilution starting from 2 μg/mL with a total of 8 concentrations: 2,000 ng/mL, 400 ng/mL, 80 ng/mL, 16 ng/mL, 3.2 ng/mL, 0.64 ng/mL, 0.128 ng/mL and 0.0256 ng/mL respectively. The plates were incubated at 37° C. for 2 h with hBRCA84D as the positive control antibody. After washing 5 times with 1×PBST, Anti-Human IgG HRP (Jackson, 109-035-003, 1:5000) was used as the secondary antibody and incubated at 37° C. for 1 h. After washing 5 times with 1×PBST, color developing solution TMB was added to the plate, and microplate reader (Thermo, Multiskan FC) was used to read OD450 value after termination of the reaction. EC₅₀ was generated by GraphPad.

For assay [3], the target named is T2, B7-H3 on surface of tumor cell (786-0, MDA-MB-231, Raji-B7-H3 cells) (human, UniProt Q5ZPR3 29-534).
T2 construct: whole, on cells; The making of Raji-B7-H3 cells is not described; also called B7-H3 on the surface of tumor cells; human B7-H3
T2 sequence (looked up): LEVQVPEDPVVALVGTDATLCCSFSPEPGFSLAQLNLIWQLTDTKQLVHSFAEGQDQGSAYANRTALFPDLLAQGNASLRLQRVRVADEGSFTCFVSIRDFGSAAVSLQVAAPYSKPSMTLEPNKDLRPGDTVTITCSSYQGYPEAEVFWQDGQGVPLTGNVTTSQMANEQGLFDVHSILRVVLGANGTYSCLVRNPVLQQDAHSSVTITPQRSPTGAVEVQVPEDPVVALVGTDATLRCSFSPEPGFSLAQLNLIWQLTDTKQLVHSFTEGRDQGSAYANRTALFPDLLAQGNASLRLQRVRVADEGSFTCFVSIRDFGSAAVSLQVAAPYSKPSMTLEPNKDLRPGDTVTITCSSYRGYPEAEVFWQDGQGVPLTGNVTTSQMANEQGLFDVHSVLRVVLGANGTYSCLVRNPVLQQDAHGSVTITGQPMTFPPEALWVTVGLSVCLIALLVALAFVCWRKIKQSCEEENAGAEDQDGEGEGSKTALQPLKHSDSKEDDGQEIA
Kind of assay: FACS on Raji-B7-H3 cells. The protocol:
The binding activity of antibodies to B7-H3 on the surface of tumor cells was analyzed by FACS. Mean fluorescence intensity (MFI) and EC₅₀ detected by FACS indicate the binding activity of the antibody to cells. After 786-0 and MDA-MB-231 cells were digested, they were resuspended in 2% FBS-PBS solution and counted. After raji-B7-H3 cells were collected, they were resuspended in 2% FBS-PBS and counted. The above cells were plated in a cell plate with 1×10⁵ cells per well. The anti-B7-H3 antibody of the present disclosure was used as the primary antibody and added to cell plates in gradient dilution starting from 20 μg/mL with a total of 8 concentrations: 20,000 ng/mL, […], 2,000 ng/mL, 400 ng/mL, 80 ng/mL, 16 ng/mL, 3.2 ng/mL, and 0.64 ng/mL respectively. The plates were incubated at 4° C. for 1 h with hBRCA84D as the positive control antibody. PE-Anti-Human IgG (Biolegend, Cat. No. 409303, 1.25 μl/well) was used as the secondary antibody, washed, and detected for the fluorescence intensity generated by the binding of the antibody to the cell surface by a flow cytometer.

B1: hBRCA84D (antibody, human IgG1, kappa, V domains shown)
VH: EVQLVESGGGLVQPGGSLRLSCAASGFTFSSFGMHWVRQAPGKGLEWVAYISSDSSAIYYADTVKGRFTISRDNAKNSLYLQMNSLRDEDTAVYYCGRGRENIYYGSRLDYWGQGTTVTVSS
VL: DIQLTQSPSFLSASVGDRVTITCKASQNVDTNVAWYQQKPGKAPKALIYSASYRYSGVPSRFSGSGSGTDFTLTISSLQPEDFATYYCQQYNNYPFTFGQGTKLEIKR
notes: Humanized antibody from WO2011/109400; also called positive control antibody hBRCA84D; control antibody hBRCA84D
Broadly, the Kd is a measure of binding affinity in units of concentration. Read a low Kd as a tighter complex. By koff is commonly meant a measure of how fast the partners let go of each other. By kon is commonly meant the second-order rate constant of association. A lower kon goes with slow association. The EC50 (read off the curve) is the concentration giving half of the maximal effect. A high value points to a less potent agent. B1: in assay [1], binding was put at a Kd of 0.455 nM, the koff came out at 0.000111 s⁻¹ and the kon was found to be 243000 M⁻¹ s⁻¹. Moreover, the “EC50 (read off the curve)” value in assay [2] is roughly 5 ng/mL. Moreover, in assay [3], the “Mean fluorescence intensity (MFI)” value is 233000.
